# Literature values, collected in paper PMC6691393.
# Target: Survivin BIR (Homo sapiens) (UniProt O15392)
# Chain of UniProt O15392 (O15392 15-91): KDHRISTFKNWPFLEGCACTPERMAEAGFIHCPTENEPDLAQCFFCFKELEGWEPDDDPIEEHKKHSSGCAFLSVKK
substance,measurement,value
SMAC/Diablo N-terminal peptide (from UniProt Q9NR28),Kd,121 µM
